{"source": "patent US20230189818A1", "about": "“RNA-BASED CONTROL OF BOTRYTIS” (priority 2021, published 2023)", "molecules": {"B1": {"name": "GS2297: dsRNA trigger targeting B. cinerea Bcrpb5 (XM_024693733.1); trigger SEQ ID NO 23, RNA 35, reverse complement 47 (nucleic acid, listed as Botrytis cinerea)", "sense": "UGCACCAUCAGGUCCCGCUCAAAAGAUUAUUCCCGCUGUCGCAUCCGAGACAAGAAUCGAGACCUUCGUCGAGCAAGAUUUACUUGUCAAUAUUACACAUCAUGAAUUGGUUCCCAAGCAUGUUUUGUUAAGUAGAGAAGAGAGGGCCAAGUUGUUGUCAAGAUAUAGAUUGAAGGAUACUCAACUCCCACGUAUUCAGGCUGCGGAUCCAGUUGCAAAAUAUUUGGGAUUGAGAAGAGGGCAGGUCGUUAAGAUUAUCAGAAAGUCGGAAACUGCUGGUCGUUAUGCCAGUUACAGAUUGUGCGUAUAAUGGAGCUGGAGGGUAGAUGAUUUGGUGUUAAUAACUAGGGAGUUUCUUGGGAAAAAUUUGCAUAUUUGGGGAAGGCGUAAUAGGCUGGAAGAAAGACUGAGGAUGAGAUUGUCUAUUUUGGCUUUCCAGGAAGCAAUACUUUGAGACAUGAAAUUUGAUAUUAAAUUUCUUGUUCUGUAUAUUUCUGAUAGUUUCAGAGCUUUUCAAUAAGAUCUAUUCUACAGUUUUAAGAAUCCAGACUCACCCUUUGAGAAGCUCAUACAAAGUUCCUUCCUA", "antisense": "UAGGAAGGAACUUUGUAUGAGCUUCUCAAAGGGUGAGUCUGGAUUCUUAAAACUGUAGAAUAGAUCUUAUUGAAAAGCUCUGAAACUAUCAGAAAUAUACAGAACAAGAAAUUUAAUAUCAAAUUUCAUGUCUCAAAGUAUUGCUUCCUGGAAAGCCAAAAUAGACAAUCUCAUCCUCAGUCUUUCUUCCAGCCUAUUACGCCUUCCCCAAAUAUGCAAAUUUUUCCCAAGAAACUCCCUAGUUAUUAACACCAAAUCAUCUACCCUCCAGCUCCAUUAUACGCACAAUCUGUAACUGGCAUAACGACCAGCAGUUUCCGACUUUCUGAUAAUCUUAACGACCUGCCCUCUUCUCAAUCCCAAAUAUUUUGCAACUGGAUCCGCAGCCUGAAUACGUGGGAGUUGAGUAUCCUUCAAUCUAUAUCUUGACAACAACUUGGCCCUCUCUUCUCUACUUAACAAAACAUGCUUGGGAACCAAUUCAUGAUGUGUAAUAUUGACAAGUAAAUCUUGCUCGACGAAGGUCUCGAUUCUUGUCUCGGAUGCGACAGCGGGAAUAAUCUUUUGAGCGGGACCUGAUGGUGCA"}}, "key": {"[1]": {"test_system": "Botrytis cinerea isolate (B05.10)", "test": "Detached leaf assay (tomato leaflets, lesion size)", "type": "in vivo", "details": "five days post inoculation, vs untreated inoculated control", "summary_of_the_method": "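Tomato (Brandywine) detached lateral leaflets were sprayed with treatment in 0.03% Silwet L-77 24 h before inoculation. Two 10 μL drops of 1×10^5 conidia/mL in 7% grape juice were applied per leaflet, which was then incubated at 23 °C, ~75% RH, 12/12 light. Lesion diameter was measured at 5 DPI against the untreated inoculated control, ten replicates.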"}, "[2]": {"test_system": "Botrytis cinerea B05.10 isolate", "test": "Greenhouse whole plant assay (tomato 'Lanai', disease severity)", "type": "in vivo", "details": "final rating day (rating #3), three runs, four-week-old 'Lanai' tomato plant"}}}
{"molecule": "B1", "values": [{"measurement": "Average % Reduction in Lesion Size", "setting": "[1]; 30 ppm", "result": 27.63, "unit": "%"}, {"measurement": "Average % Reduction in Lesion Size", "setting": "[1]; 50 ppm", "result": 24.35, "unit": "%"}, {"measurement": "% control", "setting": "[2]; 8 g ai/ha", "result": 6, "unit": "%"}, {"measurement": "% control", "setting": "[2]; 25 g ai/ha", "result": 29, "unit": "%"}]}
